Results: PMC8240853 (The Journal of Cell Biology, 2021)
Values joined by “and” are separate entries in the source; they are usually repeats but may differ in a detail not shown here. Equal entries are not always repeated.

What was measured:
[1] = biological target: WDR62 WD40 domain, 1-790 (UniProt O43379); assay: streptavidin pull-down, GFP Western blot; settings: reference: wild-type C3 fragment; sites T1053
[2] = biological target: microtubules of porcine brain tubulin (porcine) (UniProt P02550); assay: binding to microtubules in vitro
[3] = biological target: WDR62-N2-GFP (human)
[4] = biological target: T1, Strep-TagBFP-TPX2 (human, UniProt Q9ULW0-1 1-747); assay: recruitment to microtubules in vitro
T1 sequence: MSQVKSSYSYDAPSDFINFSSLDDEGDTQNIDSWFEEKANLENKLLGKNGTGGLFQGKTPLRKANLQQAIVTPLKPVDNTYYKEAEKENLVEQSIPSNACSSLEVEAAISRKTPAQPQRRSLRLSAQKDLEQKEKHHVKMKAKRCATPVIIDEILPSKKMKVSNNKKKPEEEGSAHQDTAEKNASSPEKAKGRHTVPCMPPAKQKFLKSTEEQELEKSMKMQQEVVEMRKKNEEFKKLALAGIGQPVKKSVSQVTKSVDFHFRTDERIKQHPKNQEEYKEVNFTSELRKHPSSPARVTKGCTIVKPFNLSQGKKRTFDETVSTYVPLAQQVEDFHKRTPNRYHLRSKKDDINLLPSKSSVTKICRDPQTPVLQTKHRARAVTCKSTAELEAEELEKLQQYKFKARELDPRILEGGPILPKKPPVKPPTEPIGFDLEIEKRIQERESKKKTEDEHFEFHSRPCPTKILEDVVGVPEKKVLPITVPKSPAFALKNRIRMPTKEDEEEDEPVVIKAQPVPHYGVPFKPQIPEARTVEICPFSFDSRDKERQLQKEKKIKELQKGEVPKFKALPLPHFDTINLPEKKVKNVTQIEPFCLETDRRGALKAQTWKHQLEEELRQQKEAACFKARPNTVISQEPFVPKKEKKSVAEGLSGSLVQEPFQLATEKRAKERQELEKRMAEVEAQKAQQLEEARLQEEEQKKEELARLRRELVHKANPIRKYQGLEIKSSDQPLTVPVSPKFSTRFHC

[5] = biological target: WDR62 FL WT-GFP-Strep (human, UniProt O43379-4 1-1523); assay: recruitment to microtubules in vitro
[6] = biological target: Strep-p80 WD (UniProt Q8BG40 1-315); assay: pull-down
Sequence of Strep-p80 WD (Q8BG40 1-315): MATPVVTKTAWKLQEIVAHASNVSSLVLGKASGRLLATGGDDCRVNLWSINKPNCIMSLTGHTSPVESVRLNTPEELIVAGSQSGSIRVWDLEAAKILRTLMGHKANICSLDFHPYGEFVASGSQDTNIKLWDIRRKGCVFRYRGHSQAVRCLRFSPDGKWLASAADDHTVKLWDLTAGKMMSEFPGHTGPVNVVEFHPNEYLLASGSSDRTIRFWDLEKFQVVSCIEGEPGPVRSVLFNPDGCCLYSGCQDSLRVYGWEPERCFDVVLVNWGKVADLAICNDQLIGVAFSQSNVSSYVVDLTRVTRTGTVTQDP

Molecule: WDR62 C3, 1001-1523 (from UniProt O43379) C3 T1053A
- binding against the reference [1]: lost

Molecule: WDR62 WD-GFP-Strep (from UniProt O43379-4 1-790) (domain or fragment)
- fold affinity for GMPCPP-stabilized MTs against the FL protein [2]: 4 fold and 5 fold

Molecule: p60/TagBFP-p80 (from UniProt O43379-4;Q8BG40) (complex)
- breakage frequency of WDR62 N2-decorated curved MTs in live MRC5 cells [3]: 95%

Molecule: p60/TagBFP-p80 R615A (from UniProt O43379-4;Q8BG40) (complex)
- breakage frequency of WDR62 N2-decorated curved MTs in live MRC5 cells [3]: 95%

B1: Strep-GFP–Aurora A (natural protein)
chain: MDRSKENCISGPVKATAPVGGPKRVLVTQQFPCQNPLPVNSGQAQRVLCPSNSSQRIPLQAQKLVSSHKPVQNQKQKQLQATSVPHPVSRPLNNTQKSKQPLPSAPENNPEEELASKQKNEESKKRQWALEDFEIGRPLGKGKFGNVYLAREKQSKFILALKVLFKAQLEKAGVEHQLRREVEIQSHLRHPNILRLYGYFHDATRVYLILEYAPLGTVYRELQKLSKFDEQRTATYITELANALSYCHSKRVIHRDIKPENLLLGSAGELKIADFGWSVHAPSSRRTTLCGTLDYLPPEMIEGRMHDEKVDLWSLGVLCYEFLVGKPPFEANTYQETYKRISRVEFTFPDFVTEGARDLISRLLKHNPSQRPMLREVLEHPWITANSSKPSNCQNKESASKQS
- binding result [4]: binds

B2: TPX2/TagBFP–Aurora A complex (complex)
chain 1: MSQVKSSYSYDAPSDFINFSSLDDEGDTQNIDSWFEEKANLENKLLGKNGTGGLFQGKTPLRKANLQQAIVTPLKPVDNTYYKEAEKENLVEQSIPSNACSSLEVEAAISRKTPAQPQRRSLRLSAQKDLEQKEKHHVKMKAKRCATPVIIDEILPSKKMKVSNNKKKPEEEGSAHQDTAEKNASSPEKAKGRHTVPCMPPAKQKFLKSTEEQELEKSMKMQQEVVEMRKKNEEFKKLALAGIGQPVKKSVSQVTKSVDFHFRTDERIKQHPKNQEEYKEVNFTSELRKHPSSPARVTKGCTIVKPFNLSQGKKRTFDETVSTYVPLAQQVEDFHKRTPNRYHLRSKKDDINLLPSKSSVTKICRDPQTPVLQTKHRARAVTCKSTAELEAEELEKLQQYKFKARELDPRILEGGPILPKKPPVKPPTEPIGFDLEIEKRIQERESKKKTEDEHFEFHSRPCPTKILEDVVGVPEKKVLPITVPKSPAFALKNRIRMPTKEDEEEDEPVVIKAQPVPHYGVPFKPQIPEARTVEICPFSFDSRDKERQLQKEKKIKELQKGEVPKFKALPLPHFDTINLPEKKVKNVTQIEPFCLETDRRGALKAQTWKHQLEEELRQQKEAACFKARPNTVISQEPFVPKKEKKSVAEGLSGSLVQEPFQLATEKRAKERQELEKRMAEVEAQKAQQLEEARLQEEEQKKEELARLRRELVHKANPIRKYQGLEIKSSDQPLTVPVSPKFSTRFHC
chain 2: MDRSKENCISGPVKATAPVGGPKRVLVTQQFPCQNPLPVNSGQAQRVLCPSNSSQRIPLQAQKLVSSHKPVQNQKQKQLQATSVPHPVSRPLNNTQKSKQPLPSAPENNPEEELASKQKNEESKKRQWALEDFEIGRPLGKGKFGNVYLAREKQSKFILALKVLFKAQLEKAGVEHQLRREVEIQSHLRHPNILRLYGYFHDATRVYLILEYAPLGTVYRELQKLSKFDEQRTATYITELANALSYCHSKRVIHRDIKPENLLLGSAGELKIADFGWSVHAPSSRRTTLCGTLDYLPPEMIEGRMHDEKVDLWSLGVLCYEFLVGKPPFEANTYQETYKRISRVEFTFPDFVTEGARDLISRLLKHNPSQRPMLREVLEHPWITANSSKPSNCQNKESASKQS
- binding result [5]: binds

Molecule: LAFHAKRSYQPHGRWAERAGQEPLKTILDAQDLDCYFTPMKPES (domain or fragment) [trxA-6xHis-WDR62 M1]
- binding result [6]: binds
